Article PMC6441084, “The formin Drosophila homologue of Diaphanous2 (Diaph2) controls microtubule dynamics in colorectal cancer cells independent of its FH2-domain” (Scientific Reports, 2019)
Values belong to the binder of their own block, whether it stands above or below them.

Target: microtubules (MTs) polymerised from purified tubulin (Cytoskeleton, # T240) (UniProt P02550 1-451)
Assay: cell-based or functional assay

- rate of MT-polymerization (turbidity at 340 nm, no taxol; 2 µM tubulin, 0.2 µM Diaph2 protein), fold against the buffer control: 40 fold
B1: full-length (FL) Diaph2 (Drosophila homologue of Diaphanous2), GST-fusion protein (natural protein, human, UniProt O60879 1-1101, looked up)
chain: MEQPGAAASGAGGGSEEPGGGRSNKRSAGNRAANEEETKNKPKLNIQIKTLADDVRDRITSFRKSTVKKEKPLIQHPIDSQVAMSEFPAAQPLYDERSLNLSEKEVLDLFEKMMEDMNLNEEKKAPLRNKDFTTKREMVVQYISATAKSGGLKNSKHECTLSSQEYVHELRSGISDEKLLNCLESLRVSLTSNPVSWVNNFGHEGLGLLLDELEKLLDKKQQENIDKKNQYKLIQCLKAFMNNKFGLQRILGDERSLLLLARAIDPKQPNMMTEIVKILSAICIVGEENILDKLLGAITTAAERNNRERFSPIVEGLENQEALQLQVACMQFINALVTSPYELDFRIHLRNEFLRSGLKTMLPDLKEKENDELDIQLKVFDENKEDDLTELSHRLNDIRAEMDDMNEVYHLLYNMLKDTAAENYFLSILQHFLLIRNDYYIRPQYYKIIEECVSQIVLHCSGMDPDFKYRQRLDIDLTHLIDSCVNKAKVEESEQKAAEFSKKFDEEFTARQEAQAELQKRDEKIKELEAEIQQLRTQAQVLSSSSGIPGPPAAPPLPGVGPPPPPPAPPLPGGAPLPPPPPPLPGMMGIPPPPPPPLLFGGPPPPPPLGGVPPPPGISLNLPYGMKQKKMYKPEVSMKRINWSKIEPTELSENCFWLRVKEDKFENPDLFAKLALNFATQIKVQKNAEALEEKKTGPTKKKVKELRILDPKTAQNLSIFLGSYRMPYEDIRNVILEVNEDMLSEALIQNLVKHLPEQKILNELAELKNEYDDLCEPEQFGVVMSSVKMLQPRLSSILFKLTFEEHINNIKPSIIAVTLACEELKKSESFNRLLELVLLVGNYMNSGSRNAQSLGFKINFLCKIRDTKSADQKTTLLHFIADICEEKYRDILKFPEELEHVESASKVSAQILKSNLASMEQQIVHLERDIKKFPQAENQHDKFVEKMTSFTKTAREQYEKLSTMHNNMMKLYENLGEYFIFDSKTVSIEEFFGDLNNFRTLFLEAVRENNKRREMEEKTRRAKLAKEKAEQEKLERQKKKKQLIDINKEGDETGVMDNLLEALQSGAAFRDRRKRIPRNPDNRRVPLERSRSRHNGAISSK

- rate of MT-polymerization (turbidity at 340 nm, no taxol; 2 µM tubulin, 0.2 µM Diaph2 protein), fold against the buffer control: 4 fold
B2: FH2-domain of Diaph2 (aa 624-1049), GST-fusion protein (domain or fragment, human, UniProt O60879 624-1049, looked up)
chain: YGMKQKKMYKPEVSMKRINWSKIEPTELSENCFWLRVKEDKFENPDLFAKLALNFATQIKVQKNAEALEEKKTGPTKKKVKELRILDPKTAQNLSIFLGSYRMPYEDIRNVILEVNEDMLSEALIQNLVKHLPEQKILNELAELKNEYDDLCEPEQFGVVMSSVKMLQPRLSSILFKLTFEEHINNIKPSIIAVTLACEELKKSESFNRLLELVLLVGNYMNSGSRNAQSLGFKINFLCKIRDTKSADQKTTLLHFIADICEEKYRDILKFPEELEHVESASKVSAQILKSNLASMEQQIVHLERDIKKFPQAENQHDKFVEKMTSFTKTAREQYEKLSTMHNNMMKLYENLGEYFIFDSKTVSIEEFFGDLNNFRTLFLEAVRENNKRREMEEKTRRAKLAKEKAEQEKLERQKKKKQLIDINKE
